Several values for one entry are separate records, joined by “and”; a condition that tells them apart may be missing. Equal entries are not always repeated.
Key:
Format in all cases: cell-based, human
pERK = assay: Cytokine-stimulated phosphorylation in immunophenotypically defined cell populations from healthy donor BM (flow cytometry); details: healthy donor BM, mean ± SD
Procedure: (§1) Bone marrow (BM) samples were collected in 7.5 mL Iscove's modified Dulbecco's medium (IMDM) supplemented with 100U penicillin, 0.01 mg/mL streptomycin, and 70 μg/mL heparin sodium salt from 10 patients undergoing hip replacement surgery, who were otherwise healthy. These patients were from a pool of surgery patients, age 49 to 77, and represented […] patients. […] These BM samples were rinsed twice with IMDM to release cells, filtered using a 100 μm Nylon cell strainer to remove marrow particles, and centrifuged for at RT fro 7 minutes at 200 g. The cell pellet was washed twice with sterile IMDM to remove traces of fat and re-suspended in IMDM to a concentration of 3×10^7 cells/mL.
(§2) To assess the signal transduction response after growth factor simulation, a series comprising two sets of tubes including about 3×10^6 cells/100 μL were incubated at 37° C. for 30 minutes. After this pre-incubation period, tubes with then processes with either a stimulant or inhibitor. […] To examine the effects of protein phosphorylation inhibition, tubes were incubated with an inhibitor cocktail comprising 100 μM/100 μL UO126, 1 μM/100 μL LY294002, and 1 μM/100 μL rapamycin. One unstimulated tube receiving no stimulant or inhibitor was processed to assess basal levels of phospho-protein expression. After stimulation the cells were immediately fixed in 10% formaldehyde solution at 37° C. Pre-labeling with CD13, CD16 and CD64 antibodies was carried out 20 minutes prior to formaldehyde fixation. After fixation, one set of tubes was permeabilized without methanol for pAKT, pERK and pS6 staining and the other for 80% methanol permeabilized for pSTAT3 and pSTAT5 staining. After permeablization, the cells were washed in PBS with 2% BSA and blocked by re-suspended in 75 μL of PBS comprising 25% heat inactivated normal mouse serum, 25% normal rabbit serum. To stain cells with fluorescent conjugated monoclonal antibodies, samples were incubated on ice for 45 minutes in 100 μL of an antibody staining solution including either: 1) CD15-Pacific Orange, CD34-Phycoerythrin-Texas Red, CD117-Phycoerythrin-Cyanin 5.5, CD45-Allophycocyanin-Alexa Fluor 750 (or CD45-Pacific Orange, in which case CD15-Pacific Orange was omitted), pS6-Pacific Blue, pERK-Alexa Fluor 488 and pAKT-Alexa Fluor 647 or 2) CD15-Pacific Orange, CD34-Phycoerythrin-Texas Red, CD117-Phycoerythrin-Cyanin 5.5, CD45-Allophycocyanin-Alexa Fluor 750 or CD45-Pacific Blue, pSTAT3-Alexa Fluor 488 and pSTAT5-Phycoerythrin. The stained cells were washed twice with ice cold PBS containing 2% BSA and centrifuged at 800 g for 6 minutes at 4° C. The supernatant was discarded and cells re-suspended in 250 μL of chilled wash buffer for data acquisition. Stained cells were examined using either GALIOS flow cytometer (Beckman Coulter) or CYAN ADP (Beckman Coulter) equipped with 488 nm, 405 nm and 635 nm lasers to detect the degree of fluorescence. Data were analyzed using FCS Express (De Novo Software, CA) analysis software.
(§3) Specific phosphoprotein expression of pERK, pS6, pAKT, pSTAT5, and pSTAT3 was examined in seven discrete phenotypically defined populations based on 7-color immunophenotyping (FIG. 1). The percent of responding (phosphorprotein positive) cells for each of these populations was determined from individual single parameter histograms based on a fixed integration region set on the inhibitor treated control at about 3% positives.

pSTAT3 [1] = assay: as above; details: for pSTAT3 Percent (%) Responding Cells, Mean / pSTAT3 S/N ratio: healthy donor BM, mean ± SD
Procedure: as §1, §2, §3

pS6 = assay: as above; details: healthy donor BM, mean ± SD
Procedure: as §1, §2, §3

pSTAT5 [2] = assay: as above; details: for pSTAT5 Percent (%) Responding Cells, Mean / pSTAT5 S/N ratio: healthy donor BM, mean ± SD
Procedure: as §1, §2, §3

pAKT = assay: as above; details: healthy donor BM, mean ± SD
Procedure: as §1, §2, §3

pSTAT3 [3] = assay: Cytokine-stimulated phosphorylation in AML cell populations (BM or PB of AML patients); details: patient AML3 (Example 3)
Procedure: as §2, §3
(§4) Using normal BM signaling profiles of Example 1 as comparison, analysis of 14 AML samples was carried out to identify differences in signaling responses. White blood cells from BM or peripheral blood (PB) samples were obtained from 14 diagnosed AML patients undergoing routine clinical flow cytometry analysis using IRB approved protocols. The AML patients included newly diagnosed AML, AMLs arising in a background of MDS, therapy related AMLs and previously diagnosed AML post therapy. The median age of the patients at diagnosis was 51 years (range: 29-75 years) and represented 5 female and 9 male patients. The median white blood cell was 6.4 million/mL (range: 0.9-106 M/mL) and the BM morphologic blast count was an average of 46% (range: 0%-90%).
(§5) Experiments performed to assess the signal transduction response after growth factor simulation were performed as described for Example 1.

pSTAT5 [4] = assay: as above; details: patient AML3 (Example 3)
Procedure: as §2, §3, §4, §5

lymphocytes = assay: Phosphoprotein modulation in lymphocytes of normal BM (Example 1, internal negative control); details: lymphocytes of normal BM (Examples 1-2)
Procedure: To assess the signal transduction response after growth factor simulation, a series comprising two sets of tubes including about 3×10^6 cells/100 μL were incubated at 37° C. for 30 minutes. After this pre-incubation period, tubes with then processes with either a stimulant or inhibitor. […] To examine the effects of protein phosphorylation inhibition, tubes were incubated with an inhibitor cocktail comprising 100 μM/100 μL UO126, 1 μM/100 μL LY294002, and 1 μM/100 μL rapamycin. One unstimulated tube receiving no stimulant or inhibitor was processed to assess basal levels of phospho-protein expression. After stimulation the cells were immediately fixed in 10% formaldehyde solution at 37° C. […] Stained cells were examined using either GALIOS flow cytometer (Beckman Coulter) or CYAN ADP (Beckman Coulter) equipped with 488 nm, 405 nm and 635 nm lasers to detect the degree of fluorescence. Data were analyzed using FCS Express (De Novo Software, CA) analysis software.
The tables include the mean and the standard deviation of the percent responding cell population as well as the signal/noise (S/N) ratio for the 5 different phosphoproteins in response to the above-mentioned stimuli in each of these populations. […] Lymphocytes thus served as a de facto internal negative control and their median fluorescence intensity (MFI) was used for normalization of the phosphoprotein measurements.

B1: Granulocyte Colony-Stimulating Factor (protein, UniProt P09919 31-207, looked up)
Granulocyte …: TPLGPASSLPQSFLLKCLEQVRKIQGDGAALQEKLVSECATYKLCHPEELVLLGHSLGIPWAPLSSCPSQALQLAGCLSQLHSGLFLYQGLLQALEGISPELGPTLDTLQLDVADFATTIWQQMEELGMAPALQPTQGAMPAFASAFQRRAGGVLVASHLQSFLEVSYRVLRHLAQP
notes: colony-stimulating cytokine
- pERK Percent (%) Responding Cells, Mean (pERK; CD34^+ (CD34^+/CD117^+ cells)): 47.1% and 47.1 ± 12.6%
- pERK S/N ratio (pERK; CD34^+ (CD34^+/CD117^+ cells)): 10.2 and 10.2 ± 2.7
- pERK Percent (%) Responding Cells, Mean (pERK; CD117^+ (CD34^−/CD117^+ cells)): 39.2 ± 13.9%
- pERK S/N ratio (pERK; CD117^+ (CD34^−/CD117^+ cells)): 6.8 ± 2.5
- pERK Percent (%) Responding Cells, Mean (pERK; G1, immature myeloid cells): 22.9% and 22.9 ± 24.1%
- pERK S/N ratio (pERK; G1, immature myeloid cells): 4.2 ± 1.6
- pERK Percent (%) Responding Cells, Mean (pERK; G2, intermediate myeloid cells): 55.2 ± 33.1%
- pERK S/N ratio (pERK; G2, intermediate myeloid cells): 5.8 ± 2.4
- pERK Percent (%) Responding Cells, Mean (pERK; G3, mature myeloid cells): 46.0% and 46.0 ± 30.3%
- pERK S/N ratio (pERK; G3, mature myeloid cells): 6.2 ± 2.2
- pERK Percent (%) Responding Cells, Mean (pERK; Mono, monocytes): 12.7 ± 8.8%
- pERK S/N ratio (pERK; Mono, monocytes): 3.2 ± 1.6
- pSTAT3 Percent (%) Responding Cells, Mean (pSTAT3 [1]; CD34^+ (CD34^+/CD117^+ cells)): 77.8 ± 19.1%
- pSTAT3 S/N ratio (pSTAT3 [1]; CD34^+ (CD34^+/CD117^+ cells)): 9.8 ± 3.0
- pSTAT3 Percent (%) Responding Cells, Mean (pSTAT3 [1]; CD117^+ (CD34^−/CD117^+ cells)): 46.2 ± 26.8%
- pSTAT3 S/N ratio (pSTAT3 [1]; CD117^+ (CD34^−/CD117^+ cells)): 9.9 ± 4.6
- pSTAT3 Percent (%) Responding Cells, Mean (pSTAT3 [1]; G1, immature myeloid cells): 91.2 ± 20.4%
- pSTAT3 S/N ratio (pSTAT3 [1]; G1, immature myeloid cells): 13.3 ± 4.8
- pSTAT3 Percent (%) Responding Cells, Mean (pSTAT3 [1]; G2, intermediate myeloid cells): 91.3 ± 19.3%
- pSTAT3 S/N ratio (pSTAT3 [1]; G2, intermediate myeloid cells): 13.3 ± 5.1
- pSTAT3 Percent (%) Responding Cells, Mean (pSTAT3 [1]; G3, mature myeloid cells): 89.2 ± 24.9%
- pSTAT3 S/N ratio (pSTAT3 [1]; G3, mature myeloid cells): 14.0 ± 5.5
- pSTAT3 Percent (%) Responding Cells, Mean (pSTAT3 [1]; Mono, monocytes): 27.8 ± 31.8%
- pSTAT3 S/N ratio (pSTAT3 [1]; Mono, monocytes): 6.1 ± 2.7
- pSTAT3, Normal Sample (pSTAT3 [1]; Table 7 comparison value, matches percent responding CD34^+ cells of Table 5): 77.8
- pS6 Percent (%) Responding Cells, Mean (pS6; CD34^+ (CD34^+/CD117^+ cells)): 52% and 52.0 ± 34.2%
- pS6 S/N ratio (pS6; CD34^+ (CD34^+/CD117^+ cells)): 30.7 ± 25.2
- pS6 Percent (%) Responding Cells, Mean (pS6; CD117^+ (CD34^−/CD117^+ cells)): 41.5 ± 26.5%
- pS6 S/N ratio (pS6; CD117^+ (CD34^−/CD117^+ cells)): 12.9 ± 10.1
- pS6 Percent (%) Responding Cells, Mean (pS6; G1, immature myeloid cells): 2.7 ± 1.9%
- pS6 S/N ratio (pS6; G1, immature myeloid cells): 4.0 ± 2.3
- pS6 Percent (%) Responding Cells, Mean (pS6; G2, intermediate myeloid cells): 2.9 ± 2.3%
- pS6 S/N ratio (pS6; G2, intermediate myeloid cells): 3.7 ± 2.1
- pS6 Percent (%) Responding Cells, Mean (pS6; G3, mature myeloid cells): 4.2 ± 3.0%
- pS6 S/N ratio (pS6; G3, mature myeloid cells): 4.0 ± 2.4
- pS6 Percent (%) Responding Cells, Mean (pS6; Mono, monocytes): 42.2% and 42.2 ± 30.2%
- pS6 S/N ratio (pS6; Mono, monocytes): 17.2 ± 16.8
- pSTAT5 Percent (%) Responding Cells, Mean (pSTAT5 [2]; CD34^+ (CD34^+/CD117^+ cells)): 82.6 ± 14.0%
- pSTAT5 S/N ratio (pSTAT5 [2]; CD34^+ (CD34^+/CD117^+ cells)): 25.2 and 25.2 ± 13.3
- pSTAT5 Percent (%) Responding Cells, Mean (pSTAT5 [2]; CD117^+ (CD34^−/CD117^+ cells)): 49.8 ± 25.2%
- pSTAT5 S/N ratio (pSTAT5 [2]; CD117^+ (CD34^−/CD117^+ cells)): 17.0 ± 11.9
- pSTAT5 Percent (%) Responding Cells, Mean (pSTAT5 [2]; G1, immature myeloid cells): 70.9 ± 26.5%
- pSTAT5 S/N ratio (pSTAT5 [2]; G1, immature myeloid cells): 8.7 and 8.7 ± 1.9
- pSTAT5 Percent (%) Responding Cells, Mean (pSTAT5 [2]; G2, intermediate myeloid cells): 71.6 ± 22.0%
- pSTAT5 S/N ratio (pSTAT5 [2]; G2, intermediate myeloid cells): 9.7 ± 2.3
- pSTAT5 Percent (%) Responding Cells, Mean (pSTAT5 [2]; G3, mature myeloid cells): 71.4 ± 17.7%
- pSTAT5 S/N ratio (pSTAT5 [2]; G3, mature myeloid cells): 11.7 and 11.7 ± 3.0
- pSTAT5 Percent (%) Responding Cells, Mean (pSTAT5 [2]; Mono, monocytes): 29.5 ± 19.9%
- pSTAT5 S/N ratio (pSTAT5 [2]; Mono, monocytes): 5.9 ± 2.0
- pSTAT5, Normal Sample (pSTAT5 [2]; Table 7 comparison value, matches percent responding CD34^+ cells of Tables 1-5): 82.6
- pAKT Percent (%) Responding Cells, Mean (pAKT; CD34^+ (CD34^+/CD117^+ cells)): 22.5% and 22.5 ± 18.4%
- pAKT S/N ratio (pAKT; CD34^+ (CD34^+/CD117^+ cells)): 6.4 ± 5.9
- pAKT Percent (%) Responding Cells, Mean (pAKT; CD117^+ (CD34^−/CD117^+ cells)): 16.6 ± 19.8%
- pAKT S/N ratio (pAKT; CD117^+ (CD34^−/CD117^+ cells)): 2.7 ± 1.8
- pAKT Percent (%) Responding Cells, Mean (pAKT; G1, immature myeloid cells): 5.3 ± 10.9%
- pAKT S/N ratio (pAKT; G1, immature myeloid cells): 2.5 ± 1.5
- pAKT Percent (%) Responding Cells, Mean (pAKT; G2, intermediate myeloid cells): 4.1 ± 3.3%
- pAKT S/N ratio (pAKT; G2, intermediate myeloid cells): 2.5 ± 1.2
- pAKT Percent (%) Responding Cells, Mean (pAKT; G3, mature myeloid cells): 4.4 ± 3.1%
- pAKT S/N ratio (pAKT; G3, mature myeloid cells): 2.8 ± 1.4
- pAKT Percent (%) Responding Cells, Mean (pAKT; Mono, monocytes): 4.1 ± 4.9%
- pAKT S/N ratio (pAKT; Mono, monocytes): 2.6 ± 1.2
- pSTAT3, AML Sample (pSTAT3 [3]): 7.0
- pSTAT5, AML Sample (pSTAT5 [4]): 8.3
- Modulation of phosphoprotein epitopes (pERK, pS6, pAKT, pSTAT3 or pSTAT5) in lymphocytes (lymphocytes): no response

— patent US20130210034A1, “COMPLEX PHOSPHOPROTEIN ACTIVATION PROFILES” (BECKMAN COULTER, INC., priority 2005, published 2013)
